In the series the test system is OmpR (phosphorylated with acetyl phosphate) (Yersinia pseudotuberculosis IP31758). Put plainly: EMSA.

In turn, ompF promoter returned a binding of 20 nM.
The same measure for T6SS-4 promoter: 40 nM.

The values above are taken from PMC3686713.
